B1: anti-mutCALR antibody clone 42 (antibody, human IgG1, lambda, V domains shown)
VH: EVQLVQSGAEVKKPGASVKVSCKVSGYTLTELSMHWVRQAPGKGLEWMGLVDPEDGETIYAQKFQGRVTMTEDTSTDTAYMELSSLRSEDTAVYYCAREEWSGDGDDAFDIWGQGTMVTVSS
VL: QSVLTQPPSVSAAPGQKVTISCSGSSSNIGSYSVSWYQQLPGTAPKLLIYDDNKRPSGIPDRFSGSNSGTSATLSITGLQTGDEADYYCGTWDSSLSAWVFGGGTKLTVLG
notes: human IgG1
B2: anti-mutCALR antibody clone 34 (antibody, human IgG1, lambda, V domains shown)
VH: QVQLVQSGAEVKKPGATVKISCKVSGYSFTDYFIHWVQQAPGKGLAWVGLVDPEDGETIYAEKFQGRVTITADTSTDTAYMELSSLRSEDTAVYYCATPGGILTDPDAFDIWGQGTMVTVSS
VL: QSALTQPASVSGSPGQSITISCTGTSSDVGGYNYVSWYQQHPGKAPKLMIYEVSNRPSGVSNRFSGSKSGNTASLTISGLQAEDEADYYCSSYTSSSTYVFGTGTKVTVLG
notes: human IgG1
B3: anti-mutCALR antibody clone 48 (antibody, human IgG1, lambda, V domains shown)
VH: EVQLVQSGAEVKKPGSSVKVSCKASGGTFSSYAISWVRQAPGQGLEWMGGIIPIFGTANYAQKFQGRVTITADESTSTAYMELSSLRSEDTAVYYCASSPLRGSGWYWHYYYGMDVWGQGTTVTVSS
VL: SYVLTQPPSVSVAPGKTARITCGGNNIGSKSVHWYQQKPGQAPVLVIYQDRKRPSGIPERFSGSNSGNTATLTISGTQAMDEADYYCQAWDSSTAVFGGGTKLTVLG
notes: human IgG1
B4: anti-mutCALR antibody clone 43 (antibody, human IgG1, lambda, V domains shown)
VH: EVQLVQSGAEVKKPGASVKVSCKASGGTFSSYAISWVRQAPGQGLEWMGGIIPIFGTANYAQKFQGRVTITADESTSTAYMELSSLRSEDTAVYYCASSPLRGSGWYWHYYYGMDVWGQGTTVTVSS
VL: not shown
notes: human IgG1
B5: anti-mutCALR antibody clone 45 (antibody, human IgG1, lambda, V domains shown)
VH: EVQLVQSGAEVKKPGSSVKVSCKASGGTFSSYAISWVRQAPGQGLEWMGGIIPIFGTANYAQKFQGRVTITADESTSTAYMELSSLRSEDTAVYYCASSPLRGSGWYWHYYYGMDVWGQGTTVTVSS
VL: SYVLTQPLSVSVAPGQTARITCGGNNIGRKSVHWYQQKPGQAPVLVIYRDSNRPSGIPERFSGSNSGNTATLTISRAQAGDEADYYCQVWDSSTVVFGGGTKLTVLG
notes: human IgG1
B6: anti-mutCALR antibody clone 50 (antibody, human IgG1, lambda, V domains shown)
VH: QMQLVQSGAEVKKPGSSVKVSCKASGGTFSSYAISWVRQAPGQGLEWMGGIIPIFGTANYAQKFQGRVTITADESTSTAYMELSSLRSEDTAVYYCASSPLRGSGWYWHYYYGMDVWGQGTTVTVSS
VL: SYVLTQPPSVSVAPGKTARITCGGNNIGTKSVHWYQQKPGQSPVLVIYQDRKRPSGIPERFSGSNSGNTATLTISGTQAMDEADYYCQVWDSSTEVFGGGTKLTVLG
notes: human IgG1
B7: anti-mutCALR antibody clone 51 (antibody, human IgG1, lambda, V domains shown)
VH: EVQLVQSGAEVKKPGSSVKVSCKASGGTFSSYAISWVRQAPGQGLEWMGGIIPIFGTANYAQKFQGRVTITADESTSTAYMELSSLRSEDTAVYYCASSPLRGSGWYWHYYYGMDVWGQGTTVTVSS
VL: SYELTQPPSVSVAPGKTARITCGGNKIGTKSVHWYQQKPGQAPVLVIYQDSKRPSGIPERFSGSNSGNTATLTISGTQAMDEADYYCQAWGSSTVVFGGGTKLTVLG
notes: human IgG1
B8: anti-mutCALR antibody clone 49 (antibody, human IgG1, lambda, V domains shown)
VH: EVQLVQSGAEVKKPGSSVKVSCKASGGTFSSYAISWVRQAPGQGLEWMGGIIPIFGTANYAQKFQGRVTITADESTSTAYMELSSLRSEDTAVYYCASSPLRGSGWYWHYYYGMDVWGQGTTVTVSS
VL: SYELTQPPSVSVAPGKTARITCGGNNIRAKHVHWYQQKPGQSPVLVIYQDSKRPSGIPERFSGSNSGSTATLTISRVEAGDEADYYCQVWDSSTVVFGGGTKLTVLG
notes: human IgG1
B9: anti-mutCALR antibody clone 37 (antibody, human IgG1, lambda, V domains shown)
VH: QVQLVQSGAEVKKPGATVKISCKVSGYSFTDYFIHWVQQAPGKGLAWVGLVDPEDGETIYAEKFQGRVTITADTSTDTAYMELSSLRSEDTAVYYCATPGGILTDPDAFDIWGQGTMVTVSS
VL: QSALTQPASVSGSPGQSITISCTGTSSDVGGYNYVSWYQQHPGKAPKLMIYDVSNRPSGVSNRFSGSKSGNTASLTISGLQAEDEADYYCSSYTSSSTFYVFGTGTKVTVLG
notes: human IgG1; group 2
B10: anti-mutCALR antibody clone 35 (antibody, human IgG1, lambda, V domains shown)
VH: QVQLVQSGAEVKKPGATVKISCKVSGYSFTDYFIHWVQQAPGKGLAWVGLVDPEDGETIYAERFQGRVTITADTSTDTAYMELSSLRSEDTAVYYCATPGGILTDPDAFDIWGQGTMVTVSS
VL: QSALTQPASVSGSPGQSITISCTGTSSDVGGYNYVSWYQQHPGKAPKLMIYEVSNRPSGVSNRFSGSKSGNTASLTISGLQAEDEADYYCSSYTSSSTPYVFGTGTKVTVLG
notes: human IgG1; group 2
B11: anti-mutCALR antibody clone 36 (antibody, human IgG1, lambda, V domains shown)
VH: QVQLVQSGAEVKKPGATVKISCKVSGYSFTDYFIHWVQQAPGKGLAWVGLVDPEDGETIYAEKFQGRVTITADTSTDTAYMELSSLRSEDTAVYYCATPGGILTDPDAFDIWGQGTMVTVSS
VL: QSALTQPRSVSGSPGQSVTISCAGTGSDVGGYNYVSWYQHHPGKAPKLMIYDVNKRPSGVPDRFSGSKSGNTASLTISGLQAEDEADYYCSSYTSSSTFYVFGTGTKVTVLG
notes: human IgG1; group 2
B12: anti-mutCALR antibody clone 4 (antibody, human IgG1, lambda, V domains shown)
VH: EVQLVQSGAEVKKPGASVKVSCKVSGYTLTELSMQWVRQAPGKGLEWMGGFDPDDGETMYAEKFQGRLTVTEDTSTDTVYMELRSLTSEDTALYFCATSPGYDFFDYWGQGTLVTVSS
VL: SYVLTQPPSVSVAPGQTARITCGGNNIGSKSVHWYQQKPGQAPVLVVYDDSDRPSGIPERFSGSNSGNTATLTINRVEAGDEADYYCQVWDSSNDLLIFGGGTKLTVLG
B13: anti-mutCALR antibody clone 1 (antibody, human IgG1, lambda, V domains shown)
VH: EVQLVQSGAEVKKPGASVKVSCKVSGYTLTELSMQWVRQAPGKGLEWMGGFDPDDGETMYAEKFQGRLTVTEDTSTDTVYMELRSLTSEDTALYFCATSPGYDFFDYWGQGTLVTVSS
VL: SYVLTQPPSVSVAPGKTARITCGGNYIGSKSVHWYQQKPGQAPVLVVYDDGDRPSGIPARFSGSNSGNTATLTISRVEAGDEADYYCQVWDSISDHVVFGGGTKLTVLG
notes: human IgG1; group 1
B14: anti-mutCALR antibody clone 2 (antibody, human IgG1, lambda, V domains shown)
VH: EVQLVQSGAEVKKPGASVKVSCKVSGYTLTELSMQWVRQAPGKGLEWMGGFDPDDGETMYAEKFQGRLTVTEDTSTDTVYMELRSLTSEDTALYFCATSPGYDFFDYWGQGTLVTVSS
VL: SYELTQPPSVSVAPGKTARITCGGDNIGSKSVHWYQQKPGQAPVLVVYDDSDRPSGIPERFSGSNSGNTATLTISRVEAGDEADYYCQVWDSSIDHLIFGGGTKVTVLG
notes: human IgG1; group 1
B15: anti-mutCALR antibody clone 3 (antibody, human IgG1, lambda, V domains shown)
VH: EVQLVQSGAEVKKPGASVKVSCKVSGYTLTELSMQWVRQAPGKGLEWMGGFDPDDGETMYAERFQGRLTVTEDTSTDTVYMELRSLTSEDTALYFCATSPGYDFFDYWGQGTLVTVSS
VL: SYVLTQPPSVSVAPGQTARITCGGNNIGSKSVHWYQQKPGQAPVLVVYDDSDRPSGIPERFSGSNSGNTATLTINRVEAGDEADYYCQVWDSSNDLLIFGGGTKLTVLG
notes: human IgG1; group 1
B16: anti-mutCALR antibody clone 5 (antibody, human IgG1, lambda, V domains shown)
VH: EVQLVQSGAEVKKPGASVKVSCKVSGYTLTELSMQWVRQAPGKGLEWMGGFDPDDGETMYAEKFQGRLTVTEDTSTDTVYMELRSLTSEDTALYFCATSPGYDFFDYWGQGTLVTVSS
VL: SYVLTQPPSVSVAPGQTASITCVGTNFGSKNVHWYQQRPGQAPVLVVYDDSDRPSGIPERFSGSNSGNTATLTISRVEAGDEADYYCQVWDSSSDHLIFGGGTKLTVLG
notes: human IgG1; group 1
B17: anti-mutCALR antibody clone 7 (antibody, human IgG1, lambda, V domains shown)
VH: EVQLVQSGAEVKKPGASVKVSCKVSGYTLTELSMQWVRQAPGKGLEWMGGFDPDDGETMYAEKFQGRLTVTEDTSTDTVYMELRSLTSEDTALYFCATSPGYDFFDYWGQGTLVTVSS
VL: SYVLTQPPSVSVAPGQTASITCVGTNFGSKNVHWYQQRPGQAPVLVVYDDSDRPSGIPERFSGSNSGNTATLTINRVEAGDEADYYCQVWDSSNDLLIFGGGTKLTVLG
notes: human IgG1; group 1

Experiments:
[1] = molecular target: T1, human Type 1 mutCALR on Ba/F3 cells expressing MPL and Type 1 mutCALR (human); assay: cell-based or functional assay
T1 chain: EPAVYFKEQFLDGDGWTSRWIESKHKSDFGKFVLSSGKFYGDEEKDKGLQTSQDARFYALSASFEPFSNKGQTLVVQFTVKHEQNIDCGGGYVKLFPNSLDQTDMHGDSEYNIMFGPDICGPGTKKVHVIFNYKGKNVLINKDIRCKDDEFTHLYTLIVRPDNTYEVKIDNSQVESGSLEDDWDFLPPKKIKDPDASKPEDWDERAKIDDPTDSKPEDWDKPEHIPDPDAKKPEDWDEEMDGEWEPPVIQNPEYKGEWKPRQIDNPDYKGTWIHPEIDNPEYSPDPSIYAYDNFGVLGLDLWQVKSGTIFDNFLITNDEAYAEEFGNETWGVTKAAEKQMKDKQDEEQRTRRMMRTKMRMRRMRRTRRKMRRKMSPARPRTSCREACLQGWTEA

[2] = molecular target: T2, human mutCALR on BaF3 cells stably expressing human MPL and human mutCALR (MPL-mutCALR cells) (human); assay: flow cytometry, BaF3 MPL-mutCALR cells
T2 construct: also called mutant calreticulin
T2 chain: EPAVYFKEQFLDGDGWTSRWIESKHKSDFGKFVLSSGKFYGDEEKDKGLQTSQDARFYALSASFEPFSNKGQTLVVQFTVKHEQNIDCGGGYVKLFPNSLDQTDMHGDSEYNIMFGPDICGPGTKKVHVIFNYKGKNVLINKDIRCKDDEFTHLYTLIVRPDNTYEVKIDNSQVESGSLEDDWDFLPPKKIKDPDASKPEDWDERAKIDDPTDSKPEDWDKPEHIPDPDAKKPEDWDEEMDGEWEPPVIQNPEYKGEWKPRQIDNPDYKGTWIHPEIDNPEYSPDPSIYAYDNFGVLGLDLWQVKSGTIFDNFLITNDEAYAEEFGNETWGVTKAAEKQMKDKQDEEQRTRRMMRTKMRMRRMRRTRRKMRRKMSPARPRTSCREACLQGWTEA
Method: On the day of the assay, cells were washed and resuspended in assay buffer. Approximately 200,000 cells/well were added to 96-well plates and stained with the indicated concentration of antibodies for 30 minutes on ice. Cells were then washed and stained with goat anti-human secondary conjugated to R-phycoerythrin (R-PE) (Jackson Immuno Research Laboratories) for 30 minutes on ice. The cells were then washed and analyzed by flow cytometry.

MBP protein = MBP protein (UniProt P0AEX9 27-392 = MBP); assay: SPR (Biacore 8K), antibody captured on anti-human IgG (Fc), MBP injected
Method: Experiment 1: Recombinant MBP-mutCALR Type 1 fusion protein was custom made at Cepter (cepterbiopartners.com). Data for the interaction of antibodies with recombinant MBP-mutCALR Type 1 fusion protein were collected at 25° C. on a Biacore 8K instrument (Cytiva, Marlborough, Mass.), and all reagents were obtained from Cytiva unless otherwise specified. The experiments were conducted using Tris-buffered saline (pH 7.2), 0.005% Surfactant P20, 1 mM CaCl₂) as running buffer. To prepare the capture surfaces, anti-human IgG (Fc) antibodies (Product #29234600) was amine-coupled onto a CM4 chip (Product #BR100534) under standard conditions using an Amine Coupling Kit (Product #BR100050). […] The kinetics parameters were obtained by applying 1:1 binding model to fit the data from multiple-cycle injection experiments using Biacore Insight Evaluation software.

| Binder | IC50, inhibition of pSTAT5 [1] [µg/mL] | MPL-mutCALR AUC [2] | EC50 [2] [µg/mL] | binding result (MBP protein) |
| --- | --- | --- | --- | --- |
| B1 | 0.196 | 61300 |  |  |
| B2 | 0.072 | 71900 | 0.02 |  |
| B3 | 2.6 | 30300 |  |  |
| B4 | 6.9 | 27900 |  |  |
| B5 | 13 | 29800 |  |  |
| B6 | 28 | 36700 | 0.8 |  |
| B7 | 14 | 37300 | 1.15 |  |
| B8 | 9.3 | 36400 | 0.89 |  |
| B9 |  |  |  | no binding (tested: 250 nM) |
| B10 |  |  |  | no binding (tested: 250 nM) |
| B11 |  |  |  | no binding (tested: 250 nM) |
| B12 |  |  |  | no binding (tested: 250 nM) |
| B13 |  |  |  | no binding (tested: 250 nM) |
| B14 |  |  |  | no binding (tested: 250 nM) |
| B15 |  |  |  | no binding (tested: 250 nM) |
| B16 |  |  |  | no binding (tested: 250 nM) |
| B17 |  |  |  | no binding (tested: 250 nM) |
